# Values joined by “and” are separate entries in the source; they are usually repeats but may differ in a detail not shown here. Identical values can stand only once.
# B1: 6×His-gB (natural protein)
# chain: AQTPEQPAPPATTVQPTATRQQTSFPFRVCELSSHGDLFRFSSDIQCPSFGTRENHTEGLLMVFKDNIIPYSFKVRSYTKIVTNILIYNGWYADSVTNRHEEKFSVDSYETDQMDTIYQCYNAVKMTKDGLTRVYVDRDGVNITVNLKPTGGLANGVRRYASQTELYDAPGWLIWTYRTRTTVNCLITDMMAKSNSPFDFFVTTTGQTVEMSPFYDGKNKETFHERADSFHVRTNYKIVDYDNRGTNPQGERRAFLDKGTYTLSWKLENRTAYCPLQHWQTFDSTIATETGKSIHFVTDEGTSSFVTNTTVGIELPDAFKCIEEQVNKTMHEKYEAVQDRYTKGQEAITYFITSGGLLLAWLPLTPRSLATVKNLTELTTPTSSPPSSPSPPAPSAARGSTPAAVLRRRRRDAGNATTPVPPTAPGKSLGTLNNPATVQIQFAYDSLRRQINRMLGDLARAWCLEQKRQNMVLRELTKINPTTVMSSIYGKAVAAKRLGDVISVSQCVPVNQATVTLRKSMRVPGSETMCYSRPLVSFSFINDTKTYEGQLGTDNEIFLTKKMTEVCQATSQYYFQSGNEIHVYNDYHHFKTIELDGIATLQTFISLNTSLIENIDFASLELYSRDEQRASNVFDLEGIFREYNFQAQNIAGLRKDLDNAVSNGRNQFVDGLGELMDSLGSVGQSITNLVSTVGGLFSSLVSGFISFFKNPFGGMLILVLVAGVVILVISLTRRTRQMSQQPVQMLYPGIDELAQQHASGEGPGINPISKTELQAIMLALHEQNQEQKRAAQRAAGPSVASRALQAARDRFPGLRRRRYHDPETAAALLGEAETEF
# Experiments:
# GST-EphA2 [1] = target: T1, GST-EphA2 (UniProt P29317 24-976); assay: ELISA; 200 ng GST-EphA2 coated on 96-well plates overnight at 4 °C, blocked with 5% BSA in PBS; gradient concentrations of 6×His proteins, 2 h at room temperature; anti-His or anti-GST antibody, HRP secondary, absorbance at 450 nm; conditions: both partners purified
# T1 construct: EphA2; The methods name both pGEX6p-1-GST/His and pET28a as the vector; also called glutathione S-transferase (GST)-EphA2
# GST-EphA2 [2] = target: T1, GST-EphA2; assay: ELISA; as the ELISA on GST-EphA2-coated plates, gH/gL or gB incubated in the presence of IFITM1 (concentration of IFITM1 not stated); conditions: both partners purified
binder,measurement,setting,value
B1,EC50,GST-EphA2 [1],41.7 nM and 39.6 nM
same,EC50 with IFITM1,GST-EphA2 [2],84.3 nM

# — paper PMC11087256, “Interferon-induced transmembrane protein-1 competitively blocks Ephrin receptor A2-mediated Epstein–Barr virus entry into epithelial cells” (Nature Microbiology, 2024)
